{"source": "paper PMC6379965", "about": "“Expression and activity of the calcitonin receptor family in a sample of primary human high-grade gliomas” (BMC Cancer, 2019)", "molecules": {"B1": {"name": "adrenomedullin (peptide)", "peptide": "YRQSMNNFQGLRSFGCRFGTCTVQKLAHQIYQFTDKDKDNVAPRSKISPQGY"}}, "key": {"SB2b cell line": {"test_system": "SB2b cell line", "assay": "Ca2+ mobilization, SB2b", "assay_type": "cell-based, human", "settings": "Fluo4-AM, FlexStation, 37 °C, pH 7.4, peak RFU, ATP 10 μM, ionomycin 1 μM, representative experiment, 3 replicates", "procedure": "(§3) Primary patient high-grade glioma (HGG) cell lines, in vitro surrogates of glioblastoma, were developed by QIMR-Berghofer Medical Research Institute (Brisbane, Australia) and represent 3 distinct GBM subtypes: SB2b and PB1 (classical), JK2 (proneural) and WK1(mesenchymal) [37], who supplied these directly for this study. GBM cell lines were cultured as adherent monolayers on matrigel (BD Biosciences)-coated flasks using StemPro NSC SFM serum free cell culture medium (Thermo Fisher Scientific) supplemented with 20 ng/ml EGF and 20 ng/ml FGFb, 1% D-glutamine and 1% of penicillin/ streptomycin (further referred as StemPro complete medium).\n(§4) GBM cell lines were seeded at 38000 cells/well (SB2b) or 35,000 cells/well (PB1 and WK1) in 96-well matrigel-coated plates and incubated for 24 h at 37 °C, 5% CO2 in humidified incubator in StemPro complete medium. […] Cells were incubated at 37°C for 60 min before ligand addition and detection of Ca^2+ mobilisation in a FlexStation 3 (Molecular Devices)."}, "WK1 cell line [1]": {"test_system": "WK1 cell line", "assay": "Ca2+ mobilization, WK1", "assay_type": "cell-based, human", "settings": "Fluo4-AM, FlexStation, 37 °C, pH 7.4, peak RFU, ATP 10 μM, ionomycin 1 μM, representative experiment, 3 replicates", "procedure": "as §3, §4"}, "PB1 cell line [2]": {"test_system": "PB1 cell line", "assay": "Ca2+ mobilization, PB1", "assay_type": "cell-based, human", "settings": "Fluo4-AM, FlexStation, 37 °C, pH 7.4, peak RFU, ATP 10 μM, ionomycin 1 μM, representative experiment, 3 replicates", "procedure": "as §3, §4"}, "WK1 cell line [3]": {"test_system": "WK1 cell line", "assay": "cAMP accumulation, CTR agonists, WK1", "assay_type": "cell-based, human", "settings": "1 μM forskolin", "description": "(§1) Primary patient high-grade glioma (HGG) cell lines, in vitro surrogates of glioblastoma, were developed by QIMR-Berghofer Medical Research Institute (Brisbane, Australia) and represent 3 distinct GBM subtypes: SB2b and PB1 (classical), JK2 (proneural) and WK1(mesenchymal), who supplied these directly for this study. GBM cell lines were cultured as adherent monolayers on matrigel (BD Biosciences)-coated flasks using StemPro NSC SFM serum free cell culture medium (Thermo Fisher Scientific) supplemented with 20 ng/ml EGF and 20 ng/ml FGFb, 1% D-glutamine and 1% of penicillin/ streptomycin (further referred as StemPro complete medium). Cells were cultured in 5% CO2 / 95% humidified air at 37 °C.\nGBM cell lines were seeded at 38000 cells/well (SB2b) or 35,000 cells/well (PB1, JK2 and WK1) in 96-well matrigel-coated plates and incubated for 24 h at 37°C, 5% CO2 in humidified incubator in StemPro complete medium. Media was replaced with stimulation buffer (phenol red free F12 media, 0.1% BSA, 0.5 mM IBMX, pH 7.4). […] Intracellular cAMP levels in the wells were determined using Lance Ultra cAMP assay kit (Perkin Elmer) according to the manufacturer’s instructions and detected using an Envision multilabel 2103 reader. […] Data were analysed by three-parameter logistic curve and are presented as percentage of 10^− 5 M forskolin response."}, "CTR in SB2b cell line": {"target": "T1, CTR in SB2b cell line (Homo sapiens, UniProt P30988)", "T1 construct": "only one of the studied cell lines expressed functional CTR; endogenous in cells; host or cells: SB2b patient-derived high-grade glioma cell line", "T1 sequence (P30988 25-474)": "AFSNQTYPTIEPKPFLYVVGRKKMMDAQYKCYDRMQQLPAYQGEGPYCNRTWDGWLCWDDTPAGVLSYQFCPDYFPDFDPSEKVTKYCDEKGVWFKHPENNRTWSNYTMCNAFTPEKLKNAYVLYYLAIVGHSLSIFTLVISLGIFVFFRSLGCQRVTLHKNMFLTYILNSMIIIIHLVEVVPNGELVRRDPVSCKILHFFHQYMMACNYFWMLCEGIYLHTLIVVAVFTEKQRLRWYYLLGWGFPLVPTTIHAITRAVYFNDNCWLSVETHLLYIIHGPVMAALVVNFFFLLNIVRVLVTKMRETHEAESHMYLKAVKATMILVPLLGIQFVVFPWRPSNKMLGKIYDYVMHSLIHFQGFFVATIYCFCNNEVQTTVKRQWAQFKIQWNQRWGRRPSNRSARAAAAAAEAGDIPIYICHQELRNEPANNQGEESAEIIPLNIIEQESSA", "assay": "cAMP accumulation, CTR agonists, SB2b", "assay_type": "cell-based", "settings": "read-out: Emax, cAMP accumulation", "description": "as §1, with “medium).” for “medium). Cells were cultured in 5% CO2 / 95% humidified air at 37 °C.”\nGBM cell lines were seeded at 38000 cells/well (SB2b) or 35,000 cells/well (PB1, JK2 and WK1) in 96-well matrigel-coated plates and incubated for 24 h at 37°C, 5% CO2 in humidified incubator in StemPro complete medium. Media was replaced with stimulation buffer (phenol red free F12 media, 0.1% BSA, 0.5 mM IBMX, pH 7.4). […] Cells were lysed (0.3% Tween 20, 5 mM Hepes, 0.1% BSA, pH 7.4) and 5 μl of cell lysate from each well was transferred to a corresponding well of 384-well optiplate. […] Data were analysed by three-parameter logistic curve and are presented as percentage of 10^− 5 M forskolin response."}, "[4]": {"target": "calcitonin receptor (human (endogenous in SB2b)) (UniProt P30988)"}, "[5]": {"target": "CGRP (CLR/RAMP1) receptor (human (endogenous in PB1, JK2 and WK1)) (UniProt Q16602)", "sequence (Q16602 23-461, chain 1 of 2)": "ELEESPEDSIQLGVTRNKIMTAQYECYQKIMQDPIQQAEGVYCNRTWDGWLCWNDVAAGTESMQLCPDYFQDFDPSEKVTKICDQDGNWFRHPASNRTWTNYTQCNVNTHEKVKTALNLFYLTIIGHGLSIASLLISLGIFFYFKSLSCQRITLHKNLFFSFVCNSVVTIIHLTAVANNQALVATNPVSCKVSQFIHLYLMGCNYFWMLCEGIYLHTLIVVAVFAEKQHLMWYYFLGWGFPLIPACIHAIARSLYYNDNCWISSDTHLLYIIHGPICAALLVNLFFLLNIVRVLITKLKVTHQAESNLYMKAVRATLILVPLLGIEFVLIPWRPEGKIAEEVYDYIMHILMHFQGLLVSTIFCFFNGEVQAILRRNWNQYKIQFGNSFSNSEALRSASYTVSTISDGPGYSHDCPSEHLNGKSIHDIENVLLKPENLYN", "sequence (O60894 27-148, chain 2 of 2, further chain)": "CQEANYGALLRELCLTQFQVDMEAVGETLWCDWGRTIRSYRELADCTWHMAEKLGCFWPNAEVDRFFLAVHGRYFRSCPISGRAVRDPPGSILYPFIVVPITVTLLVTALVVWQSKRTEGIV"}, "JK2 cell line": {"test_system": "JK2 cell line", "assay": "cAMP accumulation, CTR agonists, JK2", "assay_type": "cell-based, human", "settings": "1 μM antagonist", "description": "as §1\n(§2) GBM cell lines were seeded at 38000 cells/well (SB2b) or 35,000 cells/well (PB1, JK2 and WK1) in 96-well matrigel-coated plates and incubated for 24 h at 37°C, 5% CO2 in humidified incubator in StemPro complete medium. Media was replaced with stimulation buffer (phenol red free F12 media, 0.1% BSA, 0.5 mM IBMX, pH 7.4). […] Cells were lysed (0.3% Tween 20, 5 mM Hepes, 0.1% BSA, pH 7.4) and 5 μl of cell lysate from each well was transferred to a corresponding well of 384-well optiplate. Intracellular cAMP levels in the wells were determined using Lance Ultra cAMP assay kit (Perkin Elmer) according to the manufacturer’s instructions and detected using an Envision multilabel 2103 reader. Raw RFU values were converted using a cAMP standard curve to give absolute cAMP concentrations. Data were analysed by three-parameter logistic curve and are presented as percentage of 10^− 5 M forskolin response."}, "PB1 cell line [6]": {"test_system": "PB1 cell line", "assay": "cAMP accumulation, CTR agonists, PB1", "assay_type": "cell-based, human", "settings": "1 μM antagonist", "description": "as §1, §2"}, "[7]": {"target": "CGRP (CLR/RAMP1) receptor (human (endogenous in PB1, JK2 and WK1)) (UniProt Q16602)", "remark": "listed apart in the source"}}, "note": "Read-outs that look alike come from different tables or passages of the source. Ends that are not written are not given here."}
{"molecule": "Nc1ncnc2c1ncn2[C@@H]1O[C@H](COP(=O)(O)OP(=O)(O)OP(=O)(O)O)[C@@H](O)[C@H]1O", "note": "[ATP]", "values": [{"measurement": "intracellular Ca2+ mobilisation response", "setting": "SB2b cell line", "result": "robust response"}, {"measurement": "intracellular Ca2+ mobilisation response", "setting": "WK1 cell line [1]", "result": "robust response"}, {"measurement": "intracellular Ca2+ mobilisation response", "setting": "PB1 cell line [2]", "result": "robust response"}]}
{"molecule": "C=C[C@@]1(C)CC(=O)[C@]2(O)[C@@]3(C)[C@@H](O)CCC(C)(C)[C@@H]3[C@H](O)[C@H](OC(C)=O)[C@@]2(C)O1", "note": "[forskolin]", "values": [{"measurement": "increase of basal cAMP", "setting": "WK1 cell line [3]", "result": 4, "unit": "fold"}]}
{"molecule": "CC[C@H](C)[C@H](NC(=O)[C@H](C)NC(=O)[C@@H](NC(=O)[C@H](CCC(N)=O)NC(=O)[C@@H]1CCCN1C(=O)[C@H](Cc1ccccc1)NC(=O)[C@@H](NC(=O)[C@H](Cc1c[nH]cn1)NC(=O)[C@H](Cc1ccccc1)NC(=O)[C@H](CCCCN)NC(=O)[C@H](CC(N)=O)NC(=O)[C@H](Cc1ccccc1)NC(=O)[C@H](CC(=O)O)NC(=O)[C@H](CCC(N)=O)NC(=O)[C@@H](NC(=O)[C@H](Cc1ccc(O)cc1)NC(=O)[C@@H](NC(=O)CNC(=O)[C@H](CC(C)C)NC(=O)[C@H](CCSC)NC(=O)[C@@H]1CSSC[C@H](N)C(=O)NCC(=O)N[C@@H](CC(N)=O)C(=O)N[C@@H](CC(C)C)C(=O)N[C@@H](CO)C(=O)N[C@@H]([C@@H](C)O)C(=O)N1)[C@@H](C)O)[C@@H](C)O)[C@@H](C)O)[C@@H](C)O)C(=O)NCC(=O)N[C@H](C(=O)NCC(=O)N[C@@H](C)C(=O)N1CCC[C@H]1C(N)=O)C(C)C", "note": "[hCT, Human CT]", "values": [{"measurement": "Emax", "setting": "CTR in SB2b cell line", "result": 43, "unit": "%"}]}
{"molecule": "C[C@H](CCC(=O)O)C[C@H](C)C[C@H](C)C(=O)/C=C(\\O)[C@H](C)C[C@H](C)C/C=C/[C@@H](C)[C@@H](O)[C@@H](C)[C@@H](O)C[C@@H]1CC[C@@](C)([C@H]2CC[C@@](C)([C@@H](C)O)O2)O1", "note": "[ionomycin]", "values": [{"measurement": "intracellular Ca2+ mobilisation response", "setting": "SB2b cell line", "result": "robust response"}, {"measurement": "intracellular Ca2+ mobilisation response", "setting": "WK1 cell line [1]", "result": "robust response"}, {"measurement": "intracellular Ca2+ mobilisation response", "setting": "PB1 cell line [2]", "result": "robust response"}]}
{"molecule": "CC(C)C[C@H](NC(=O)[C@H](CCCCN)NC(=O)CNC(=O)[C@H](CC(C)C)NC(=O)[C@@H](NC(=O)[C@@H]1CSSC[C@H](N)C(=O)N[C@@H](CO)C(=O)N[C@@H](CC(N)=O)C(=O)N[C@@H](CC(C)C)C(=O)N[C@@H](CO)C(=O)N[C@@H]([C@@H](C)O)C(=O)N1)C(C)C)C(=O)N[C@@H](CO)C(=O)N[C@@H](CCC(N)=O)C(=O)N[C@@H](CCC(=O)O)C(=O)N[C@@H](CC(C)C)C(=O)N[C@@H](Cc1c[nH]cn1)C(=O)N[C@@H](CCCCN)C(=O)N[C@@H](CC(C)C)C(=O)N[C@@H](CCC(N)=O)C(=O)N[C@H](C(=O)N[C@@H](Cc1ccc(O)cc1)C(=O)N1CCC[C@H]1C(=O)N[C@@H](CCCNC(=N)N)C(=O)N[C@H](C(=O)N[C@@H](CC(N)=O)C(=O)N[C@H](C(=O)NCC(=O)N[C@@H](CO)C(=O)NCC(=O)N[C@H](C(=O)N1CCC[C@H]1C(N)=O)[C@@H](C)O)[C@@H](C)O)[C@@H](C)O)[C@@H](C)O", "note": "[sCT, Salmon CT]", "values": [{"measurement": "Emax", "setting": "CTR in SB2b cell line", "result": 35, "unit": "%"}]}
{"molecule": "human calcitonin (from UniProt P01258 85-116) (peptide)", "values": [{"measurement": "Emax of cAMP accumulation in SB2b cells (% of forskolin)", "setting": "[4]", "result": 43}]}
{"molecule": "salmon calcitonin (peptide)", "values": [{"measurement": "Emax of cAMP accumulation in SB2b cells (% of forskolin)", "setting": "[4]", "result": 35}, {"measurement": "pEC50 of cAMP accumulation (30 min) in SB2b cells", "setting": "[4]", "result": 9.4, "unit": "pEC50"}]}
{"molecule": "αCGRP(8–37) (peptide)", "values": [{"measurement": "shift of the cAMP potency of αCGRP by 1 μM αCGRP(8–37) in PB1, JK2 and WK1 cells; blocks m4 + m8", "setting": "[5]", "result": 100, "unit": "fold"}]}
{"molecule": "αCGRP(8–37): CGRP receptor antagonist (VTHRLAGLLSRSGGVVKNNFVPTNVGSKAF; ends and bridges not checked; UniProt P06881 90-119, looked up, fragment)", "values": [{"measurement": "effect of antagonist on amylin cAMP response", "setting": "JK2 cell line", "result": "abolishing this response"}, {"measurement": "effect of antagonist on amylin cAMP response", "setting": "PB1 cell line [6]", "result": "abolishing this response"}]}
{"molecule": "B1", "values": [{"measurement": "pEC50 of cAMP accumulation (30 min) in JK2 cells", "setting": "[5]", "result": 7, "unit": "pEC50"}, {"measurement": "pEC50 of cAMP accumulation (30 min) in PB1 cells", "setting": "[5]", "result": 7.3, "unit": "pEC50"}, {"measurement": "pEC50 of cAMP accumulation (30 min) in WK1 cells", "setting": "[5]", "result": 6.8, "unit": "pEC50"}, {"measurement": "pEC50 of cAMP accumulation to AM alone, antagonist experiment, JK2 cells", "setting": "[5]", "result": 7.2, "unit": "pEC50"}, {"measurement": "pEC50 of cAMP accumulation to AM alone, antagonist experiment, PB1 cells", "setting": "[5]", "result": 7.2, "unit": "pEC50"}, {"measurement": "pEC50 of cAMP accumulation to AM alone, antagonist experiment, WK1 cells", "setting": "[5]", "result": 6.9, "unit": "pEC50"}, {"measurement": "pEC50 of cAMP accumulation to AM with 1 μM AM(22–52), JK2 cells", "setting": "[5]", "result": 7.3, "unit": "pEC50"}, {"measurement": "pEC50 of cAMP accumulation to AM with 1 μM AM(22–52), PB1 cells", "setting": "[5]", "result": 7.1, "unit": "pEC50"}, {"measurement": "pEC50 of cAMP accumulation to AM with 1 μM AM(22–52), WK1 cells", "setting": "[5]", "result": 6.7, "unit": "pEC50"}]}
{"molecule": "KCNTATCATQRLANFLVRSSNNLGPVLPPTNVGSNTY", "note": "[amylin (rAmy)]", "values": [{"measurement": "pEC50 of cAMP accumulation (30 min) in SB2b cells", "setting": "[4]", "result": 6.8, "unit": "pEC50"}, {"measurement": "pEC50 of cAMP accumulation (30 min) in JK2 cells", "setting": "[7]", "result": 5.9, "unit": "pEC50"}, {"measurement": "pEC50 of cAMP accumulation (30 min) in PB1 cells", "setting": "[7]", "result": 6.1, "unit": "pEC50"}]}
